Assay results as given in patent WO2016092096A1 (dated 2016).

Tests used:
OXA-48 carbapenemase [1] = target: T1, OXA-48 carbapenemase (Klebsiella pneumoniae, UniProt Q6XEC0 23-265); experiment: sandwich on ArrayTube array as in Example 2; cell supernatant denatured 10 min at 99°C
OXA-48 carbapenemase [2] = target: T1, OXA-48 carbapenemase; experiment: sandwich on ArrayTube array, 1461 capture and biotin-labelled 1281 detector, cultivated cells of clinical strains
VIM carbapenemase = target: T2, VIM carbapenemase (Pseudomonas aeruginosa (strain ATCC …, UniProt A0A0F7KYQ8 21-266)); experiment: sandwich on ArrayTube array as in Example 2; cell supernatant denatured 10 min at 99°C
T2 construct: The antigen in the assays came from VIM-positive strains or from supernatants of expressing cells

NDM carbapenemase = target: T3, NDM carbapenemase (Klebsiella pneumoniae, UniProt C7C422 29-270); experiment: as above
T3 construct: The antigen in the assays came from NDM-positive strains or from supernatants of expressing cells
T3 sequence (C7C422 29-270 limits assumed): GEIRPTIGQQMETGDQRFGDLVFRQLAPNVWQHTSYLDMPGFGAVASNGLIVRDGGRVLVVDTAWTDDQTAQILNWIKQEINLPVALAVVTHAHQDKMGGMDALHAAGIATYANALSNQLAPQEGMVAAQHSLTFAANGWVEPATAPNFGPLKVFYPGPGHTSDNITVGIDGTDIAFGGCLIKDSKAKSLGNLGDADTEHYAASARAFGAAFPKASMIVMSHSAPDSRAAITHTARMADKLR

T1 sequence (Q6XEC0 23-265 limits assumed): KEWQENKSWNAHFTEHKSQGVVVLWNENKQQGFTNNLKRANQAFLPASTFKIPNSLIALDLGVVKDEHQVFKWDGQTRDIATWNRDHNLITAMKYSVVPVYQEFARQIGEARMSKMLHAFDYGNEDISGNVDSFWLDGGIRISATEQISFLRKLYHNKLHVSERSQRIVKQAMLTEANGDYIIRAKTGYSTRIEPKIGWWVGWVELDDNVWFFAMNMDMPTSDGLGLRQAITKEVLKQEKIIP

B1: anti-OXA-48 antibody 1281 (antibody, V domains shown)
VH: DVQLQQSGPEMVKPGASVKISCKAFGYTFSDYYMYWVKQSHGKSLEWIGRVNGNNGDTRYNQKFEGKATLTVDKSSSTAYMELNSLTSEDSAVYYCARGDYLAYWGQGTTLTVSS
VL: NIVLTQSPASLAVSLGQRASISCRAIKSVDSYGTSFMHWYQQKPGQPPKLLIYRASNLESGIPARFSGSGSRTDFTLTINPVEADDVATYYCHQSNEAPYTFGGGTKLEIKR
notes: It was selected from a phage display Fab library
binding result (OXA-48 carbapenemase [1]): binds

B2: anti-OXA-48 antibody 1461 (antibody, V domains shown)
VH: QVQLKQSGAELGRPGSSVKLSCKTSGYKFKSYGINWVKQRPGQGLEWIGYIYPGSGYIEYNEKFQGEATLTSDTSSSTAYMQLRSLTSEDSAIYFCGRLGDGYFFYAMDYWGQGTSVTVSS
VL: QIVLTQSPTTMAASPGEKITITCSASSSISSNYMHWYQQKPGFSPKLLIYRTSNLGSGVPVRFSGSGSGTSYSLTIGTMEAEDVATYYCQQGSSIPFTFGSGTKLEIKR
notes: Used as capture antibody spotted on the array
binding result (OXA-48 carbapenemase [2]): binds

B3: anti-VIM antibody 1071 (antibody, V domains shown)
VH: QVKLQQSGPELARPGASVKLSCKASGYTFRSYGITWVKQRTGQGLEWIGEIYPESNISYYNEKFKGTATLTTDKSSSTAYMQLSSLTSEDSAVYFCARRDYDGSYIYWGQGTTLTVSS
VL: QIVLTQSPTTMAASPGENITITCSASSSISSNFLHGYQQKPGFSPKLLIYRTSNLASGVPTRFSGSGSGTSYSLTIGTMEAEDVATYYCQQGDSLPRTFGGGTKLEIKR
notes: It was selected from a phage display Fab library; Used as capture antibody
binding result (VIM carbapenemase): binds

B4: anti-NDM antibody 1041 (antibody, V domains shown)
VH: QVQLKQSGAELARPGASVKLSCKASGYTFRGYGISWVKQRTGQGLEWIGEIYPGSGNTHYNEKFKGKATLTADKSSSTAYMQLSSLTTEDSAVYFCADLGSWFANWGQGTLVTVSA
VL: DIVLTQSPATLSVTPGDSVSLSCRASQSIYNNLHWYQQKSHESPRLLIKYASQSISGIPSRFSGSGSGTDFTLSINSVETEDFGMYFCQQSNSWPYTFGAGTKLELKR
notes: as for B3
binding result (NDM carbapenemase): binds

B5: antibody 1721 (SEQ ID Nos: 19 and 23), detector antibody for VIM (antibody, V domains shown)
VH: QVQLQQPGSVLVRPGTSVKLSCKASGYTFTSYWMHWVKQRPGQGLEWIGEIYPNSGKTNYNEKFKGKATLTVDTSSSTAYVALNSLTSEDSAVYYCAKRYSLYDFTLDYWGQGTSVTVSS
VL: DIKMTQSPKSMSMSVGERVTLTCKASENVGTFVSWYQQKLDQSPKLLIYGASKRYTGVPDRFTGSGSATDFTLAISSVQAEDLADYHCGQSFSYPLTFGAGTKLELKR
notes: The detector is labelled with biotin
binding result (VIM carbapenemase): binds

B6: anti-NDM antibody 1121 (antibody, V domains shown)
VH: QVQLQQSEADLVRPGSSVKISCKASGYAFSNSWINWVKQRPGQGLEWIGQINPGDGNTKYNGKFKGKVILTADKSSSTAYMQLSSLTSEDSAVYFCERETPLWSFVYWGRGTLVTVSA
VL: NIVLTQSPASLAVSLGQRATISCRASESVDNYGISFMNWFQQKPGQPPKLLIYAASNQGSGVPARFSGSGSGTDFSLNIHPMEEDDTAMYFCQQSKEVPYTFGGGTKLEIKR
notes: Used as detector antibody, labelled with biotin
binding result (NDM carbapenemase): binds
